Test results published in PMC7737607 (The EMBO Journal, 2020).

Biological target: T1, Cap-Gly-CC1a-p150Glued-V5 (human, UniProt Q14203-1 1-358)
T1 construct: ATUM ordered gene ID #391071; also called Cap-Gly-CC1-p150Glued-V5; p150Glued-V5-tagged fragment; source: generated and purchased from ATUM Bio, purified (streptavidin-column based methods)
Test: pull-down; purified proteins mixed 1:1, with or without FLAG-EB1 WT or ΔY C-term, 1 h at 4°C in 20 mM Tris-HCl pH 7.4, 350 mM NaCl, 1 mM 2-mercaptoethanol; p150Glued-V5 fragment captured on anti-V5 antibody-coated beads, 2 h at 4°C; Western blot
Conditions: both partners purified

T1 sequence (Q14203 1-358): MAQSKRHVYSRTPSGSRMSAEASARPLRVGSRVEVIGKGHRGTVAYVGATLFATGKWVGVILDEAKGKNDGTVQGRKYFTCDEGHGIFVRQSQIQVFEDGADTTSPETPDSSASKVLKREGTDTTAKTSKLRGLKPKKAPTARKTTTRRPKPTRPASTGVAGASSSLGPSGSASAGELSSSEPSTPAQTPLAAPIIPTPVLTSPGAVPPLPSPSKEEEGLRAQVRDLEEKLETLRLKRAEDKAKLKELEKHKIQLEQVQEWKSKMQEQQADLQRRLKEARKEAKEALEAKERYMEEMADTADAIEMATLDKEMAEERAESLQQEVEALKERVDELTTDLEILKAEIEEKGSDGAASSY

binding result: binds
B1: FLAG-EB1 WT C-term (domain or fragment, human, UniProt Q15691 191-268, looked up)
chain: DEAAELMQQVNVLKLTVEDLEKERDFYFGKLRNIELICQENEGENDPVLQRIVDILYATDEGFVIPDEGGPQEEQEEY
notes: ATUM ordered gene ID #394359; also called FLAG-EB1 C-terminal; FLAG-tagged EB1 WT; source: generated and purchased from ATUM Bio, purified (streptavidin-column based methods)
